The text below walks through data of US20020010135A1 (Amgen, published 2002).

Substitutions are numbered along the chain they refer to. In names and notes the source's numbering stands.

To fix the notation:
B1: NT-3(1-117)R61A,K64D (ligand)
chain: MYAEHKSHRGEYSVCDSESLWVTDKSSAIDIRGHQVTVLGEIKTGNSPVKQYFYETRCKEAAPVDNGCRGIDDKHWNSQCKTSQTYVRALTSENNKLVGWRWIRIDTSCVCALSRKIG
B2: wild type human NT-3 (r-metHuNT-3) (ligand)
chain: MYAEHKSHRGEYSVCDSESLWVTDKSSAIDIRGHQVTVLGEIKTGNSPVKQYFYETRCKEARPVKNGCRGIDDKHWNSQCKTSQTYVRALTSENNKLVGWRWIRIDTSCVCALSRKIGRT
B3: NT-3(1-119)R61A,K64D (ligand)
chain: B2 chain with R62A, K65D

For one assay, the target named is trkB receptor. The assay can be described thus: cell-based or functional assay.
In the case of “BDNF, K65D, K73D, K95A, R97A (from UniProt P23560 129-247) (ligand)”, the Bioactivity (mg/mg), MTS mitogenic bioassay is 1.24 mg/mg.

Take “BDNF, P60E, K65D, K73D, K95A (from UniProt P23560 129-247) (ligand)”: the Bioactivity (mg/mg), MTS mitogenic bioassay stood at 0.61 mg/mg.

Molecule “Wild type BDNF (from UniProt P23560 129-247) (ligand)” gave a Bioactivity (mg/mg), MTS mitogenic bioassay of 0.61 mg/mg.

In another assay the target is human trkC receptor protein (human, UniProt Q16288 32-839). The experiment in a line: cell-based or functional assay.
Chain of human trkC receptor protein (Q16288 32-839): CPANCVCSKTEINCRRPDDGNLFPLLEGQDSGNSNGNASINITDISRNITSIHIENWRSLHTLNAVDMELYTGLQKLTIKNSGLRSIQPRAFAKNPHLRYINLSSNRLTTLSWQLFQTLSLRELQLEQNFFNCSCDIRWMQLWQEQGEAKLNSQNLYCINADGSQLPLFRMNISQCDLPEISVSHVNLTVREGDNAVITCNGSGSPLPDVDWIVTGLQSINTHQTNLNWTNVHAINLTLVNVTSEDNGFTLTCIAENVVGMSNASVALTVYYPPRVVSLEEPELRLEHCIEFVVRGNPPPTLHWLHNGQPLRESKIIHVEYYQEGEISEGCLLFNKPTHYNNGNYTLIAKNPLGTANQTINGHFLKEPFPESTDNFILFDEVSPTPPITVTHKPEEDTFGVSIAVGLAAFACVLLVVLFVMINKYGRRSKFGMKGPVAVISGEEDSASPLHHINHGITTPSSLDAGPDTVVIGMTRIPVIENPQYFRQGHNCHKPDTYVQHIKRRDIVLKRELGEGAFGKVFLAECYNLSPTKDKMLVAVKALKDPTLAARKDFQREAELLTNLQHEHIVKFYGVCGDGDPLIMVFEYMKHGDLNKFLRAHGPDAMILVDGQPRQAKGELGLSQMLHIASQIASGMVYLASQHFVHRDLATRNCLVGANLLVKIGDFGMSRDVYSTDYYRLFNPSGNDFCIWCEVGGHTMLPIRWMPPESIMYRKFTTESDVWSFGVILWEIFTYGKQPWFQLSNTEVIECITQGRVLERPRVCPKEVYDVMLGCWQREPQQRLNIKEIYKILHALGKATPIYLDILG
As for B1, the “Percentage of expected activity (%), in vitro mitogenic bioassay” value (from here on “Percentage of expected activity (%)”) was found to be 328%.

With B2, the “Percentage of expected activity (%)” value was found to be 72%.

As for B3, the “Percentage of expected activity (%)” value was determined as 524%.
